Assay results taken from the supplement of paper PMC10126150.
± gives the standard deviation of the averaged measurements.

Test system: ATP
Assay: switch fluorescence ratio, 500 uM ATP over buffer (Cy3 cluster intensity, sum of 5 cycles each) (fold (ratio)); higher = stronger signal-on switching upon ATP binding; sequences stand for … in TCGTCGGCAGCGTCAGATGTGTATAAGAGACAGTTTTTTTTTTTTTTTTTTTTTTTTT…TC
Conditions: aptamer strand: ATP DNA aptamer (quencher-CACCTGGGGGAGTATTGCGGAGGAAGG + anchor), 100 nM annealed; ATP concentration: 500 uM
In short: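 Per cluster, summed Cy3 intensity from the target cycles was divided by that from the buffer cycles to give the fluorescence ratio, then averaged per switch-domain sequence. Clusters outside 100-1000 RFU were excluded. The Cy3-labelled switching-strand clusters, on a modified Illumina MiSeq flow-cell, were annealed to 100 nM quencher-labelled ATP aptamer and imaged in selection buffer, then after 15 min with 500 uM ATP at 22 °C, for five cycles with NaOH stripping and re-annealing between them.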
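Note: ATP exposure 15 min at 22 °C before imaging.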

Sequence | switch fluorescence ratio
GAATTATGGC | 1.01 ± 0.085
AGCGAAATCA | 1 ± 0.078
CCAGGGTATA | 1.03 ± 0.032
TATAGAGGTT | 0.992 ± 0.015
TGGTAGATT | 1.01 ± 0.046
GGTATAGGGG | 0.995 ± 0.054
TTAGGCCCCG | 1.01 ± 0.04
TTAAAATTAT | 0.996 ± 0.023
GCTATTGTTC | 0.967 ± 0.039
GGCCTGGATT | 1.05 ± 0.031
AGTCTGTCGT | 0.98 ± 0.039
ACTCGGGGGC | 1.09 ± 0.23
TTGAAAGTTT | 1.01 ± 0.026
ATGTATAAAG | 0.987 ± 0.03
GGTATACTGA | 1.05 ± 0.049
TTATGGCCTA | 1.01 ± 0.017
CCTAGGTTTC | 0.981 ± 0.035
CCGGGTTGGG | 1.02 ± 0.036
GTGAGTCTAA | 0.993 ± 0.018
GGAAAGGGGT | 1.03 ± 0.082
AAATGGGCTG | 1 ± 0.09
AAAGGGGGT | 1.01 ± 0.026
GAAGGGGATT | 1.015 ± 0.01
CGACTATCGC | 1.12 ± 0.06
CGTCAATTTA | 1.12 ± 0.12

Sequence | switch fluorescence ratio
CAGATTTAAG | 0.994 ± 0.017
ACGATACTTT | 1.37 ± 0.015
GGCGTAATCT | 1.04 ± 0.037
GCTGAATTTG | 0.989 ± 0.058
TTATTATCAG | 1.013 ± 0.0021
TAGGGATGAT | 0.9705 ± 0.0026
TTGTGGGGTA | 1 ± 0.023
ATGGGCGGGC | 1.01 ± 0.03
GATTTACCAG | 1.03 ± 0.027
AGAGTTGGTC | 1 ± 0.068
AAAAATGAGA | 0.998 ± 0.043
AGACGGCAAA | 1.03 ± 0.044
AAGAATTGGG | 1.06 ± 0.11
TCGAAGGGGA | 0.971 ± 0.035
GGGTAAGTAT | 0.958 ± 0.04
TTCCTGCTTG | 1.36 ± 0.6
ATTATGGTCA | 0.994 ± 0.023
TTTTAGCATT | 0.992 ± 0.062
GAGTCAACGG | 1.027 ± 0.0071
AGTTAGGTTA | 1 ± 0.014
TTTTTTGTGC | 0.9901 ± 0.0052
AGTCTTCTGG | 1.01 ± 0.026
TATAGTGGAG | 1.024 ± 0.0069
CGCGTGGCGG | 0.999 ± 0.024
ACGCGGAGTA | 0.997 ± 0.038

Sequence | switch fluorescence ratio
GATGGATTAG | 0.982 ± 0.015
GATATCATCT | 0.99 ± 0.042
GACTATTGAA | 1 ± 0.056
ATTGAAAGTG | 0.9859 ± 0.0074
GGGAGGTATT | 0.99676 ± 0.00098
CAATTTTAGG | 0.987 ± 0.018
CGATAGTATT | 0.9854 ± 0.0063
ACGGGCATTT | 0.994 ± 0.04
GGGTGAAGGC | 0.971 ± 0.058
CAGGGATTAG | 1.01 ± 0.044
TGGAGAATTT | 1.02 ± 0.044
AGGGGCACTC | 0.992 ± 0.028
CTCATCGGTT | 1.007 ± 0.0011
TTATCCTTTA | 1.02 ± 0.012
AATCCTTTTT | 1.004 ± 0.0084
ATGCAATGCT | 3.19 ± 0.18
CTTGGTGGGA | 1.04 ± 0.012
AATAAGGTA | 0.995 ± 0.022
TAGGTAGAGT | 0.9899 ± 0.006
TCATGATATG | 0.978 ± 0.027
TTTAAGTCTC | 1.001 ± 0.0062
GTTGACTTGA | 1.02 ± 0.03
CAGGCTAGGC | 1.02 ± 0.056
CTGGGGGAAG | 0.985 ± 0.034
CCTTGGTCTT | 0.9979 ± 0.009

Sequence | switch fluorescence ratio
ATGGATTTAG | 1.014 ± 0.008
TTTATGGCTA | 1.03 ± 0.011
TCGGGAAGGT | 1 ± 0.023
ATTGAATGTA | 0.98 ± 0.016
CTAGGTTTGA | 0.987 ± 0.019
GTAAAAACTC | 1.03 ± 0.024
TAAGGTTGAC | 0.9953 ± 0.0035
CCAGTCGTCT | 1.02 ± 0.026
CGGGGTGTT | 0.994 ± 0.017
GTGTGAAAGG | 1 ± 0.013
GGTCCATACG | 1.01 ± 0.025
ATTGGGTATG | 0.998 ± 0.044
TTATAAATTT | 1.29 ± 0.45
GACGGTTCAG | 1.03 ± 0.023
CGGGAGATTA | 0.9872 ± 0.0084
AAATAACTGA | 0.994 ± 0.029
GGGGTAGGCG | 0.959 ± 0.051
GGTACGAAAG | 1.01 ± 0.026
GACGGGCAGG | 1.027 ± 0.0056
TAGGGAATGT | 1 ± 0.019
GATAGTAAGG | 0.9795 ± 0.0075
AAGCTGCCTG | 1.02 ± 0.018
GTATTCGGGA | 0.963 ± 0.029
AATTTAGGCC | 1.023 ± 0.0087
ATTCTGGGAT | 1.013 ± 0.0027

Sequence | switch fluorescence ratio
AATTGGGGGA | 0.979 ± 0.031
TTTTATCACT | 1.03 ± 0.034
GGTCGTGTAA | 0.991 ± 0.061
TACCTGGGGG | 1.02 ± 0.03
GGGCTTGAAG | 1.01 ± 0.017
TTTATCGGGA | 0.978 ± 0.017
CGGAGGCAAG | 1.14 ± 0.045
GCGCAGTACG | 4.91 ± 0.71
ATGAACTCAG | 1.03 ± 0.037
GATGAGGGTA | 0.976 ± 0.034
CTATGCAGTG | 1.03 ± 0.024
AAGACAGGAA | 1.03 ± 0.05
AAAAGTAACC | 0.993 ± 0.026
AAGTGTTCAG | 0.982 ± 0.027
TTCCAAATCC | 1.01 ± 0.056
GAGGGTGTAA | 1.001 ± 0.01
GATGGAAGGG | 0.974 ± 0.023
TATTGTAATT | 1.01 ± 0.014
CGAAGGGGAA | 1.03 ± 0.099
TCGAGTTCAG | 0.99 ± 0.021
ATTTAGGTGG | 1.02 ± 0.053
ATAGAGTTTG | 0.976 ± 0.0014
TAAGGGGCGG | 0.989 ± 0.04
AGGCATATAG | 1.09 ± 0.077
CGTTTTATAG | 0.9973 ± 0.0071

Sequence | switch fluorescence ratio
TTTTTCGTGA | 1.13 ± 0.15
TCCGAAGGAA | 1.11 ± 0.042
GGTAGATATG | 1.021 ± 0.0078
TTTTCGGCGT | 1.01 ± 0.01
AGTTTTTGGT | 0.97 ± 0.028
CGATGTGAGA | 1.04 ± 0.022
TTTGCATCTT | 0.9984 ± 0.0022
CAGTTAGATA | 1.02 ± 0.031
AAGGACGCTG | 0.991 ± 0.069
AGAAAAGAGT | 1.01 ± 0.017
TTTAAGCTAC | 4.03 ± 0.57
TGTGGTGGC | 0.995 ± 0.019
CGTGTTGGAG | 0.969 ± 0.011
AATGGTTTGT | 0.999 ± 0.025
AGGTTAATCT | 1.01 ± 0.018
ATTTGTAGGT | 0.9967 ± 0.0019
GGAGCCCCGA | 0.9814 ± 0.0076
TCGTATTAAG | 0.969 ± 0.046
AAGCGAGTTC | 0.9981 ± 0.0089
TTAGGTGGG | 0.989 ± 0.024
ACGCTTCTTG | 1 ± 0.028
GAGCTTTGTT | 0.984 ± 0.018
GTGTGAGTGT | 0.973 ± 0.016
GAGTGGGTTA | 1.03 ± 0.012
ACAGTGGGAG | 1.011 ± 0.003

Sequence | switch fluorescence ratio
AGTAGGGGGA | 0.9912 ± 0.0034
TGGGAGGGTT | 1.12 ± 0.25
ACGGCGAGTC | 1.01 ± 0.024
ATGTGGAGGG | 0.983 ± 0.033
GGGCTTATGA | 1.018 ± 0.0044
AGCTCTAAGA | 1.02 ± 0.021
TGCTGTTTTT | 0.98095 ± 0.00061
GTGGTAGGGT | 1.02 ± 0.02
GAATTGGGAG | 0.998 ± 0.02
TTTTTAGGGT | 1 ± 0.073
ATAAGTGCTG | 0.991 ± 0.017
TATAGCTACC | 1.13 ± 0.043
AGGATACGGT | 1.0054 ± 0.00059
GGGGTCCTGG | 0.943 ± 0.022
TATGCGTTGC | 1.02 ± 0.023
ACTGTTCAGC | 0.9948 ± 0.0062
CGGCTTGGT | 1.02 ± 0.015
GGGGGGGATC | 1.02 ± 0.045
AAGCGAGGGG | 1.03 ± 0.047
GGAATGAAGG | 1 ± 0.0041
ATCATCGGGA | 1.01 ± 0.013
TCTTGGTCAG | 0.991 ± 0.025
TTTCGTATTG | 0.991 ± 0.02
ATTGGGGGGT | 0.988 ± 0.015
CAGCTCCCGG | 1.07 ± 0.039

Sequence | switch fluorescence ratio
AGGTAATCTT | 0.979 ± 0.016
GGCCGAGGGT | 1.03 ± 0.025
TCATTATGTG | 0.98 ± 0.023
AGGGTCACTC | 0.9857 ± 0.0043
CGTAGTGCCC | 1.07 ± 0.048
GGGGCGTGTG | 1.01 ± 0.014
GCAAAAATGT | 1 ± 0.029
TTGGGTAAGC | 0.994 ± 0.066
AGGTTTGGGC | 0.997 ± 0.061
TCAGGAGGTG | 1.07 ± 0.019
TAATTGTAAT | 1.04 ± 0.014
GTCGGCGTTG | 0.9916 ± 0.0027
GTATGGGCGT | 1.03 ± 0.018
GCAGATTACG | 1.01 ± 0.058
GTCGGGGGG | 1.01 ± 0.026
ATCGGGAGGT | 1.04 ± 0.061
ATTCGATATC | 1.03 ± 0.012
GTTTTGTATT | 1 ± 0.029
TCAAGGGTTC | 1.03 ± 0.064
TTTGCTGGAA | 0.995 ± 0.015
AACCTGTCGG | 1.01 ± 0.028
CTTTGCTAAC | 2.21 ± 0.072
TGGTTTTGTG | 0.9862 ± 0.0015
TTCAGGGATG | 0.9822 ± 0.0028
ATCGGGGTTG | 0.958 ± 0.017
